Measurements from article PMC8861115, “Characterization and structural analyses of a novel glycosyltransferase acting on the β-1,2-glucosidic linkages” (The Journal of Biological Chemistry, 2022).

Legend:
Conditions in all cases: acceptor, donor Sop2 fixed 1 mM, pH 5.0, 37 °C
[1] = substrate: OC[C@H]1O[C@H](Oc2ccc(O)cc2)[C@H](O)[C@@H](O)[C@@H]1O; assay: hexokinase/G6PDH thio-NAD+ coupled glucose release; format: biochemical, Ignavibacterium album
From the text: (§1) hexokinase/G6PDH thio-NAD+ coupled glucose release on IaSGT (IALB_1185)

[2] = substrate: CO[C@H]1O[C@H](CO)[C@@H](O)[C@H](O)[C@H]1O; assay: hexokinase/G6PDH thio-NAD+ coupled glucose release; format: biochemical, Ignavibacterium album
From the text: as §1

[3] = substrate: OC[C@H]1O[C@H](Oc2ccccc2)[C@H](O)[C@@H](O)[C@@H]1O; assay: hexokinase/G6PDH thio-NAD+ coupled glucose release; format: biochemical, Ignavibacterium album
From the text: as §1

[4] = substrate: CO[C@@H]1O[C@H](CO)[C@@H](O)[C@H](O)[C@H]1O; assay: hexokinase/G6PDH thio-NAD+ coupled glucose release; format: biochemical, Ignavibacterium album
From the text: as §1

[5] = substrate: CCO[C@H]1O[C@H](CO)[C@@H](O)[C@H](O)[C@H]1O; assay: hexokinase/G6PDH thio-NAD+ coupled glucose release; format: biochemical, Ignavibacterium album
From the text: as §1

[6] = substrate: O=c1ccc2cc(O[C@@H]3O[C@H](CO)[C@@H](O)[C@H](O)[C@H]3O)c(O)cc2o1; assay: hexokinase/G6PDH thio-NAD+ coupled glucose release; format: biochemical, Ignavibacterium album
From the text: as §1

[7] = substrate: OCc1ccc(O[C@@H]2O[C@H](CO)[C@@H](O)[C@H](O)[C@H]2O)cc1; assay: hexokinase/G6PDH thio-NAD+ coupled glucose release; format: biochemical, Ignavibacterium album
From the text: as §1

[8] = substrate: OC[C@H]1O[C@@H](Oc2ccc(O)cc2)[C@H](O)[C@@H](O)[C@@H]1O; assay: hexokinase/G6PDH thio-NAD+ coupled glucose release; format: biochemical, Ignavibacterium album
From the text: as §1

[9] = substrate: OCc1ccccc1O[C@@H]1O[C@H](CO)[C@@H](O)[C@H](O)[C@H]1O; assay: hexokinase/G6PDH thio-NAD+ coupled glucose release; format: biochemical, Ignavibacterium album
From the text: as §1

[10] = substrate: OC[C@H]1O[C@H](Oc2ccc3ccccc3c2)[C@H](O)[C@@H](O)[C@@H]1O; assay: hexokinase/G6PDH thio-NAD+ coupled glucose release; format: biochemical, Ignavibacterium album
From the text: as §1

[11] = substrate: OC[C@H]1O[C@H](OCc2ccccc2)[C@H](O)[C@@H](O)[C@@H]1O; assay: hexokinase/G6PDH thio-NAD+ coupled glucose release; format: biochemical, Ignavibacterium album
From the text: as §1

[12] = substrate: O=[N+]([O-])c1ccc(O[C@H]2O[C@H](CO)[C@@H](O)[C@H](O)[C@H]2O)cc1; assay: purified protein
[13] = substrate: O=[N+]([O-])c1ccc(O[C@@H]2O[C@H](CO)[C@@H](O)[C@H](O)[C@H]2O)cc1; assay: purified protein

B1: IaSGT (IALB_1185) (Ignavibacterium album JCM 16511) (protein)
chain: MKPHNSEKYFVKNGQPHFLISGEVHYFRINPKLWRNHLQLLKQTGADTVSTYIPWDWHEIEEDDFDFEGKTHPARNLIRFIKLCKEENLDLIVKPGPYILAEYENQGLPSWLLKKLSKNAFALDENGNVISPDLVSYLSDEFLEYTFKWYDKVMPIISKHQKEHYGPITMMQLCNEIGVFQWLSGKSDYNPKVINLYKEFIIQRYKTIEKLNSVYSTNYNSFDDLKAPSGKIKLRSDYCAYFDFHLFFREYYNKYISILKNKIRSFGINIKLTHNIPGWIYGNASELPMLISTYSEIMKNHPDIIFGLDHIPEFVSFRNAHSDLACNKILEAMQPEAPVWAAEFQAGTREHHVKAYAKDLETFYIASLAHGIKGFNYYMFSQGINPEGKGFYGKTFYFQTALDAASNKLALYDSIKKVNRFIRKEQKDLLRTNVNSEICVGFYKPYFFTELISSQLLKEKKLNVEELGLYIDPRFLREEILFNGLLRGLQTLNYNYDVVDLENCDLKSLTAYKQLWITSAEFMDAETQNLLSEFVLNGGNLILYPAVPTLDNYLNRCEILKNNFGIEFITKDSSHKVSAFGIEDVFTAFSKKQIYNDTNSKPIAFTQENEICGIRKKIGKGELTILGFAFGYTSDEHLELIDKLVKLNKIKRELFVSDKDIQFVVRENNKSRYIFFLNYHNERKTFNYRKSSELKKKKSEEISIAPFSYKVIKENK
notes: full length (no N-terminal signal peptide), his6-tag fusion from pET30a(+) NdeI/XhoI, E. coli BL21(DE3); homodimer
[1]
  Km: 380 ± 50 µM
  kcat: 8.7 ± 0.6 s⁻¹
  kcat/Km: 23000 ± 2000 M⁻¹ s⁻¹
[2]
  Km: 200 ± 30 µM
  kcat: 1 ± 0.1 s⁻¹
  kcat/Km: 4900 ± 400 M⁻¹ s⁻¹
[3]
  Km: 220 ± 30 µM
  kcat: 1.8 ± 0.2 s⁻¹
  kcat/Km: 8100 ± 600 M⁻¹ s⁻¹
[4]
  Km: 130 ± 30 µM
  kcat: 1.9 ± 0.2 s⁻¹
  kcat/Km: 14000 ± 2000 M⁻¹ s⁻¹
[5]
  Km: 44 ± 5 µM
  kcat: 0.55 ± 0.02 s⁻¹
  kcat/Km: 13000 ± 1000 M⁻¹ s⁻¹
[6]
  Km: 45 ± 6 µM
  kcat: 1.3 ± 0.1 s⁻¹
  kcat/Km: 29000 ± 1000 M⁻¹ s⁻¹
[7]
  Km: 42 ± 4 µM
  kcat: 0.49 ± 0.02 s⁻¹
  kcat/Km: 12000 ± 1000 M⁻¹ s⁻¹
[8]
  Km: 26 ± 3 µM
  kcat: 1.4 ± 0.1 s⁻¹
  kcat/Km: 55000 ± 5000 M⁻¹ s⁻¹
[9]
  Km: 21 ± 3 µM
  kcat: 0.88 ± 0.03 s⁻¹
  kcat/Km: 43000 ± 1000 M⁻¹ s⁻¹
[10]
  Km: 150 ± 30 µM
  kcat: 3.9 ± 0.3 s⁻¹
  kcat/Km: 26000 ± 3000 M⁻¹ s⁻¹
[11]
  Km: 96 ± 11 µM
  kcat: 0.86 ± 0.05 s⁻¹
  kcat/Km: 9000 ± 700 M⁻¹ s⁻¹
[12]
  Km: 130 ± 20 µM
  kcat: 5 s⁻¹
  kcat/Km: 39000 M⁻¹ s⁻¹
[13]
  Km: 40 ± 4 µM
  kcat: 0.46 s⁻¹
  kcat/Km: 12000 M⁻¹ s⁻¹
